Test results: publication PMC12884772, “Macrophagic Sclerostin Loop2‐ApoER2 Interaction Required by Sclerostin for Cardiovascular Protective Action” (Advanced Science, 2025)

T1: ApoER2 (Mus musculus, UniProt Q924X6)
T1 construct: FLAG; expressed in transfected cells; host or cells: RAW264.7
T1 sequence (Q924X6 29-996): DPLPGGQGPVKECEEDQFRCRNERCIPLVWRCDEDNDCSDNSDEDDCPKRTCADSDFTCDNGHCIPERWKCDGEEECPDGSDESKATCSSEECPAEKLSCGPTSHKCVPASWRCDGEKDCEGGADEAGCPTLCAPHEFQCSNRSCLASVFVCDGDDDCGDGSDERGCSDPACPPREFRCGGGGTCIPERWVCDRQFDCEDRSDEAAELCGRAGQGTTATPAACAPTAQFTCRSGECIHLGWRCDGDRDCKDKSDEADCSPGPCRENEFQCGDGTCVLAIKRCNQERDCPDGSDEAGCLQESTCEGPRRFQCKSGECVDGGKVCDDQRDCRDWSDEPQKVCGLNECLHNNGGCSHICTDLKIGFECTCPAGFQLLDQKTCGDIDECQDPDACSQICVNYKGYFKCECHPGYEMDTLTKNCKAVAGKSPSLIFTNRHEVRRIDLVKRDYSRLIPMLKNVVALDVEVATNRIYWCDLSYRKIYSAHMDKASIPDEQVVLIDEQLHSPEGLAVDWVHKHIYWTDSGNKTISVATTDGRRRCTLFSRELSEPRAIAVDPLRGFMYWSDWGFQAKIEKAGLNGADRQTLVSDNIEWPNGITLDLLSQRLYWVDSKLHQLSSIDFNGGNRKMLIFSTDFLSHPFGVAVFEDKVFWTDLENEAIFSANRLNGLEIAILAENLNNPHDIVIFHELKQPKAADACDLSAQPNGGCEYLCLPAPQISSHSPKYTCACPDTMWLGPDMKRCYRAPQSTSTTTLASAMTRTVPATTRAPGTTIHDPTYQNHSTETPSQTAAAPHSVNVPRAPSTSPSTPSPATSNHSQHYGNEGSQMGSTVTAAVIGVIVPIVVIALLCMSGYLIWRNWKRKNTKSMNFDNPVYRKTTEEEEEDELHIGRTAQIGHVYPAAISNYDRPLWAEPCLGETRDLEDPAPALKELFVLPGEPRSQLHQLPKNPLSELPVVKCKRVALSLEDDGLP


How the values were obtained:
[1] = molecular target: sclerostin loop2 (Mus musculus, UniProt Q99P68); experiment: Pull‐down assay of ApoER2 muteins with sclerostin loop2; assay type: binding; conditions: Figure 6D
Description: The interaction residues within ApoER2 to sclerostin loop2 were determined in combination with pull‐down assay and BLI analysis. Based on the interaction residues within ApoER2 to sclerostin loop2, a series of Lrp8 mutations were developed. Based on the interaction residues within sclerostin loop2 to ApoER2, a series of sost mutations were developed.
Cell lysates were collected using RIPA Lysis and Extraction Buffer (Thermo Scientific, 89 901) supplemented with Protease Inhibitor Cocktail (CST, 5871) and centrifuged at 4000 rpm for 30 min at 4 °C, and replaced with binding buffer (PBS buffer, 20 mM imidazole, pH 8.0). After pretreatment with binding buffer three times, 20 µL Ni‐NTA Magnetic Agarose Beads were incubated with 6 µg His‐SOST and 6 µg His‐loop3 peptide, respectively, in binding buffer for 2 h at 4 °C with gentle rotation. The beads carrying His‐SOST and His‐loop3 peptide were then incubated with 500 µL cell lysate supernatant at 4 °C overnight with gentle rotation. To eliminate the influence of non‐specific binding between beads and cell lysate, 20 µL beads and 500 µL cell lysate were incubated under the same conditions. […]
The eluted liquid from pull‐down assay was then mixed with SDS‐PAGE loading buffer and boiled for 10 min at 95 °C to make samples. […] The ECL solution (BIO‐RAD, 1 705 061) was used to visualize detected proteins. […]

[2] = molecular target: T1, ApoER2; experiment: Co‐immunoprecipitation of wild‐type/mutated sclerostin with ApoER2 in macrophages (RAW264.7); assay type: binding; conditions: Figure 6E
Description: The interaction of full‐length (FL)/truncated ApoER2 with full‐length (FL) /truncated sclerostin in macrophages (RAW264.7) were determined by pull‐down assay and Co‐IP assay. The binding affinity of ApoER2 to FL sclerostin and sclerostin loop2 were determined by biolayer interferometry (BLI) analysis. Moreover, the binding of sclerostin to ApoER2 on macrophages (RAW264.7) was examined by confocal microscopy.

Chain of sclerostin loop2 (Q99P68 107-132 limits assumed): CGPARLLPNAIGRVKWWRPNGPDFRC

Row | Molecule | Binding ability of sclerostin loop2 to ApoER2 mutein versus wild‐type ApoER2 [1] | Interaction with ApoER2 by co‐IP [2]
1 | ApoER2‐M2: ApoER2 mutein P253A, T254A, G268A, W269A, R270A (protein, UniProt Q924X6 29-996, looked up, variant P253A T254A G268A W269A R270A) Low-density lipoprotein …: DPLPGGQGPVKECEEDQFRCRNERCIPLVWRCDEDNDCSDNSDEDDCPKRTCADSDFTCDNGHCIPERWKCDGEEECPDGSDESKATCSSEECPAEKLSCGPTSHKCVPASWRCDGEKDCEGGADEAGCPTLCAPHEFQCSNRSCLASVFVCDGDDDCGDGSDERGCSDPACPPREFRCGGGGTCIPERWVCDRQFDCEDRSDEAAELCGRAGQGTTATPAACAAAAQFTCRSGECIHLAAACDGDRDCKDKSDEADCSPGPCRENEFQCGDGTCVLAIKRCNQERDCPDGSDEAGCLQESTCEGPRRFQCKSGECVDGGKVCDDQRDCRDWSDEPQKVCGLNECLHNNGGCSHICTDLKIGFECTCPAGFQLLDQKTCGDIDECQDPDACSQICVNYKGYFKCECHPGYEMDTLTKNCKAVAGKSPSLIFTNRHEVRRIDLVKRDYSRLIPMLKNVVALDVEVATNRIYWCDLSYRKIYSAHMDKASIPDEQVVLIDEQLHSPEGLAVDWVHKHIYWTDSGNKTISVATTDGRRRCTLFSRELSEPRAIAVDPLRGFMYWSDWGFQAKIEKAGLNGADRQTLVSDNIEWPNGITLDLLSQRLYWVDSKLHQLSSIDFNGGNRKMLIFSTDFLSHPFGVAVFEDKVFWTDLENEAIFSANRLNGLEIAILAENLNNPHDIVIFHELKQPKAADACDLSAQPNGGCEYLCLPAPQISSHSPKYTCACPDTMWLGPDMKRCYRAPQSTSTTTLASAMTRTVPATTRAPGTTIHDPTYQNHSTETPSQTAAAPHSVNVPRAPSTSPSTPSPATSNHSQHYGNEGSQMGSTVTAAVIGVIVPIVVIALLCMSGYLIWRNWKRKNTKSMNFDNPVYRKTTEEEEEDELHIGRTAQIGHVYPAAISNYDRPLWAEPCLGETRDLEDPAPALKELFVLPGEPRSQLHQLPKNPLSELPVVKCKRVALSLEDDGLP | dramatically weaker | –
2 | ApoER2‐M8: ApoER2 mutein P253A, T254A, G268A, W269A, R270A, N311A, Q312A, E313A, encoded by Lrp8m (protein, UniProt Q924X6 29-996, looked up, variant P253A T254A G268A W269A R270A N311A Q312A E313A) Low-density lipoprotein …: DPLPGGQGPVKECEEDQFRCRNERCIPLVWRCDEDNDCSDNSDEDDCPKRTCADSDFTCDNGHCIPERWKCDGEEECPDGSDESKATCSSEECPAEKLSCGPTSHKCVPASWRCDGEKDCEGGADEAGCPTLCAPHEFQCSNRSCLASVFVCDGDDDCGDGSDERGCSDPACPPREFRCGGGGTCIPERWVCDRQFDCEDRSDEAAELCGRAGQGTTATPAACAAAAQFTCRSGECIHLAAACDGDRDCKDKSDEADCSPGPCRENEFQCGDGTCVLAIKRCAAARDCPDGSDEAGCLQESTCEGPRRFQCKSGECVDGGKVCDDQRDCRDWSDEPQKVCGLNECLHNNGGCSHICTDLKIGFECTCPAGFQLLDQKTCGDIDECQDPDACSQICVNYKGYFKCECHPGYEMDTLTKNCKAVAGKSPSLIFTNRHEVRRIDLVKRDYSRLIPMLKNVVALDVEVATNRIYWCDLSYRKIYSAHMDKASIPDEQVVLIDEQLHSPEGLAVDWVHKHIYWTDSGNKTISVATTDGRRRCTLFSRELSEPRAIAVDPLRGFMYWSDWGFQAKIEKAGLNGADRQTLVSDNIEWPNGITLDLLSQRLYWVDSKLHQLSSIDFNGGNRKMLIFSTDFLSHPFGVAVFEDKVFWTDLENEAIFSANRLNGLEIAILAENLNNPHDIVIFHELKQPKAADACDLSAQPNGGCEYLCLPAPQISSHSPKYTCACPDTMWLGPDMKRCYRAPQSTSTTTLASAMTRTVPATTRAPGTTIHDPTYQNHSTETPSQTAAAPHSVNVPRAPSTSPSTPSPATSNHSQHYGNEGSQMGSTVTAAVIGVIVPIVVIALLCMSGYLIWRNWKRKNTKSMNFDNPVYRKTTEEEEEDELHIGRTAQIGHVYPAAISNYDRPLWAEPCLGETRDLEDPAPALKELFVLPGEPRSQLHQLPKNPLSELPVVKCKRVALSLEDDGLP | dramatically weaker | –
3 | SOST^loop2m: sclerostin mutein with I94A, G95A, R96A, K98A, W99A, encoded by sost^loop2m (protein) QGWQAFRNDATEVIPGLGEYPEPPPENNQTMNRAENGGRPPHHPYDAKDVSEYSCRELHYTRFLTDGPCRSAKPVTELVCSGQCGPARLLPNAAAAVAAWRPNGPDFRCIPDRYRAQRVQLLCPGGAAPRSRKVRLVASCKCKRLTRFHNQSELKDFGPETARPQKGRKPRPGARGAKANQAELENAY | – | No interaction
